Results: publication PMC7572642 (Journal of molecular biology, 2020)

Target: the molecule itself
Assay: crystal structure

B1: chicken cone PDE6 GAFab regulatory domain (residues 42–458 of the chicken cone PDE6C catalytic subunit) (domain or fragment, UniProt P52731 42-458, looked up)
chain: GDVKEGVSFKDMSRLEECNILFELLTEIQDEAGSMEKIVHKTLQRLSQLLAADRCSMFICRSRNGIPEVATRLLNVTPTSKFEDNLVNPDKETVFPLDIGIAGWVAHTKKFFNIPDVKKNNHFSDYLDKKTGYTTVNMMAIPITQGKEVLAVVMALNKLNASEFSKEDEEVFKKYLNFISLVLRNHHTSYLYNIESRRSQMLLWSANKVFEELTDIERQFHKALYTIRMYLNCERYSVGLLDMTKEKEFYDEWPIRLGEAEPYKGPKTPDGREVNFYKIIDYILHGKEEIKVIPTPPADHWCLISGLPTYVAENGFICNMMNAPADEYFTFQKGPVDETGWVIKNVLSLPIVNKKEEIVGVATFYNRKDGKPFDEYDEQIIETLTQFLGWSVLNTDTYDKMNKLENRKDIAQEMLMY
Does B1 bind?
Result: binds
